Measurements from PMC4034419, “DNA polymerase hybrids derived from the family-B enzymes of Pyrococcus furiosus and Thermococcus kodakarensis: improving performance in the polymerase chain reaction”.
Residue numbers refer to the chain shown, from its start.

Legend:
Assay in all cases: fluorescence anisotropy; 20 mM Tris-HCl pH 8.5, 10 mM KCl, 10 mM (NH4)2SO4 (ionic strength 40); 10 nM Hex primer-template; rest of buffer and temperature not in material
Settings in all cases: protein: recombinant; label: 5'-hexachlorofluorescein on primer (strand 1); 5' overhang 20 nt on template (strand 2)
[1] = target: T1, Pfu-Pol wild type (family-B DNA polymerase) (Pyrococcus furiosus, UniProt P61875 1-775)
T1 sequence: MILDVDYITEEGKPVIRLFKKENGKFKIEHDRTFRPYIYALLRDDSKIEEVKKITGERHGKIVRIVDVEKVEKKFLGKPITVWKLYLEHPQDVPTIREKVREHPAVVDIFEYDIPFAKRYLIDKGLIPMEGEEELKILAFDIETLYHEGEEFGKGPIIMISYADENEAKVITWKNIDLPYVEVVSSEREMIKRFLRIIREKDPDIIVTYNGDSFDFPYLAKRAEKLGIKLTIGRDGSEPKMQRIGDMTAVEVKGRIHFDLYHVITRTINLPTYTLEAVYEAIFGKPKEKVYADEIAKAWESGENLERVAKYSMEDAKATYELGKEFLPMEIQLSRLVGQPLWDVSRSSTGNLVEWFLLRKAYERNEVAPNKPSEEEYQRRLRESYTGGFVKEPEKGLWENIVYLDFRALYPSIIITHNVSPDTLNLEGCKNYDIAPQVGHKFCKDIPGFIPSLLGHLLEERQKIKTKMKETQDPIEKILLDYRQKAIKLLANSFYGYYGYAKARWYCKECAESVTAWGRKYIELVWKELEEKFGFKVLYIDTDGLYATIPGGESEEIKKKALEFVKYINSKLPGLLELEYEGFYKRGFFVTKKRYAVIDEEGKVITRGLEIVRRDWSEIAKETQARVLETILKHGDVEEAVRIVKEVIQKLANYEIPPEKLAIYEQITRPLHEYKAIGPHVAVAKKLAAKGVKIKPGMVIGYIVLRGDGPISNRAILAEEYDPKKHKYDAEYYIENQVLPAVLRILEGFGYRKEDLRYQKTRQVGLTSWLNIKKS

Pfu-TkodTS L381R/K502R = target: T2, Pfu-TkodTS L381R/K502R (Pyrococcus furiosus / Thermococcus …, UniProt P61875 1-590+D0VWU9:590-774, L381R;K502R;internal_change)
T2 sequence: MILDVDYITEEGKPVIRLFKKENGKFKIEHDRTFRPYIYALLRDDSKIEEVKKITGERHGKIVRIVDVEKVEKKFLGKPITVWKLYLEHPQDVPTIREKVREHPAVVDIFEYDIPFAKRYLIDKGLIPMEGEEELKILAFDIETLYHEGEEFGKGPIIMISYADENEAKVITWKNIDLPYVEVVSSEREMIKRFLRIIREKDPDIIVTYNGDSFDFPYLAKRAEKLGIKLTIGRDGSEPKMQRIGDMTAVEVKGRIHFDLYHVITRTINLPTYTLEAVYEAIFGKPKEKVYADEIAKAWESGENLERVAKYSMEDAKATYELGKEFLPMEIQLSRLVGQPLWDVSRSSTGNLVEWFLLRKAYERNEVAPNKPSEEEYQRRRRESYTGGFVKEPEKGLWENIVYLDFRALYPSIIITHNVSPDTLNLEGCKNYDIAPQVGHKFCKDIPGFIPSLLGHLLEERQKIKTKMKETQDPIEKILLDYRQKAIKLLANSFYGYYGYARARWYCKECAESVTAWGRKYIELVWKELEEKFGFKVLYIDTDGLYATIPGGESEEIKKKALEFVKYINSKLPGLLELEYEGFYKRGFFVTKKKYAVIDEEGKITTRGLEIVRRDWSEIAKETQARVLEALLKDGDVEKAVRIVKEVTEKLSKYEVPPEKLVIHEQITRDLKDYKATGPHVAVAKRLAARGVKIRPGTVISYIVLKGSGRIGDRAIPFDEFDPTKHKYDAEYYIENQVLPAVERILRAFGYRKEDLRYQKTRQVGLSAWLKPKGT

Pfu-TkodTS (thumb swap) = target: T3, Pfu-TkodTS (thumb swap) (Pyrococcus furiosus / Thermococcus …, UniProt P61875 1-590+D0VWU9:590-774, internal_change)
T3 sequence: T2 sequence with R381L, R502K

Pfu-Pol M247R/L381R = target: T4, Pfu-Pol M247R/L381R (Pyrococcus furiosus, UniProt P61875 1-775, M247R;L381R)
T4 sequence: T1 sequence with M247R, L381R

Pfu-Pol L381R/K502R = target: T5, Pfu-Pol L381R/K502R (Pyrococcus furiosus, UniProt P61875 1-775, L381R;K502R)
T5 sequence: T1 sequence with L381R, K502R

[2] = target: T6, Tkod-Pol wild type (family-B DNA polymerase) (Thermococcus kodakarensis, UniProt D0VWU9 1-774)
T6 sequence: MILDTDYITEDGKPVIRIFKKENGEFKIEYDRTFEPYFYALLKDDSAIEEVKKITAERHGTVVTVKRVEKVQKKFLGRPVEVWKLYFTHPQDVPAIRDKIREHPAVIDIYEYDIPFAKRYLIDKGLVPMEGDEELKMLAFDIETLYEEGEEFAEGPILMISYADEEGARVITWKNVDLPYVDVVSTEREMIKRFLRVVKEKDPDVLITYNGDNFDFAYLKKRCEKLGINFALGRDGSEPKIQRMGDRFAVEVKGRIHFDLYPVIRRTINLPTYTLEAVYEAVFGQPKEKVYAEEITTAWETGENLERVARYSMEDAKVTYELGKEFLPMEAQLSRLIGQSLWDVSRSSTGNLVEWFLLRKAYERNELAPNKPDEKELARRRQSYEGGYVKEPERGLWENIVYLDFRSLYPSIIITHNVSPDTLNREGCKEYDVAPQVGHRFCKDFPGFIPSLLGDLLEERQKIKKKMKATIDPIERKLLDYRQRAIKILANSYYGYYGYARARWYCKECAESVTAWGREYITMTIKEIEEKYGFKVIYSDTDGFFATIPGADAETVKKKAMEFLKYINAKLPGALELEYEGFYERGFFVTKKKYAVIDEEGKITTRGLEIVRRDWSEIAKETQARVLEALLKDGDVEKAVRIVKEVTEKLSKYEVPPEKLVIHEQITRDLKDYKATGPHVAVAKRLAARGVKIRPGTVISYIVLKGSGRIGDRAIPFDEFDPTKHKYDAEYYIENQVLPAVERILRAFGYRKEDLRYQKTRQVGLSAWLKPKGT

B1: Hex primer-template (24/44) (dsDNA)
DNA 1: GGGGATCCTCTAGAGTCGACCTGC
DNA 2: GGAGACAAGCTTGCTTGCCAGCAGGTCGACTCTAGAGGATCCCC
Kd [1]: 251 ± 23 nM
Kd (Pfu-TkodTS L381R/K502R): 50 ± 7 nM
Kd (Pfu-TkodTS (thumb swap)): 95 ± 7 nM
Kd (Pfu-Pol M247R/L381R): 70 ± 9 nM
Kd (Pfu-Pol L381R/K502R): 107 ± 13 nM
Kd [2]: 276 ± 18 nM
